40 sequences from the nanobody polyreactivity screen of Harvey et al. (2022) can be followed below.

The data set in a line: yeast display, Sf9 membrane polyspecificity reagent, FACS + sequencing; frameworks hold sequencing errors. The procedure, abridged: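 Synthetic nanobody libraries on Saccharomyces cerevisiae BJ5465 were galactose-induced for 36–48 hours, stained 1 hour at 4 °C with 10% biotinylated, detergent-solubilized Sf9 membrane reagent and enriched on streptavidin microbeads. FACS then separated cells into low and high (top ~1%) gates by anti-HA (expression) and streptavidin (reagent binding) fluorescence. Genes were colony-PCR amplified, MiSeq 2 × 250 sequenced and CDR-length filtered. A clone's polyreactivity label is that of its gate of origin.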
As to “QVQLVESGGGLVQAGGSLRLSCAASGSTFQVNVMGWYRPAPGKEREFVAGISYSGGSTYYADSVKGRFTISRDNAKNTVYLQMNSLKPDDTAVYYCAAEEDYNIAGSWTYTYDYWGQGTQVTVSS”, the “polyreactivity (PSR sort gate)” value is recorded as “low polyreactivity”. With “QVQLVESGGGLVQAGGSLRLSCAASGSTFQVYAMGWYRQAPGKERELVAAISYRDGNTYYADSVKGRFTISRDNAKNTFYLQMNSLKPEDTAVYYCNAGLYLPSGYRRSNGYESDYWGQGTQVTVSS”, the “polyreactivity (PSR sort gate)” value is reported as “high polyreactivity”. Turning to “QVQLVESGGGLVQAGGSLRLSCAASGSTFQWNALGWYRQAPGKERELVASITDSGGRTNYADSVKGRFTISRDNAKNTVYLQMNSLKPEDTAVYYCNAAGYRRSTWWYDYWGQGSQVTVSS”, the “polyreactivity (PSR sort gate)” value was “high polyreactivity”.

As to “QVQLVESGGGLVQAGGSLRLSCAASGSTFQWNAMGWYRQAPGKERELVASITDSGGRTYYADSVKGRFTISRDNAKNTVYLQMNSLKPEDTAVYYCAAVSLWWSDYYFVEYDYWGQGTQVTVSS”, the “polyreactivity (PSR sort gate)” value is recorded as “high polyreactivity”.

Take “QVQLVESGGGLVQAGGSLRLSCAASGSTFQWYAMGWYRQAPGKERELVAAITKSGGSTYYADSVKGRFTISRDNAKNTVYLQMNSLKPEDTAVYYCAAGFWYYATEYDYWGQGTQVTVSS”: the “polyreactivity (PSR sort gate)” value is given as “low polyreactivity”. In the case of “QVQLVESGGGLVQAGGSLRLSCAASGSTFQYNAKGWYRQAPGKERELVAAISSGGSTYYADSVKGRFTISRDNAKNTVYLQMNSLKPEDTAVYYCNALSRRQNWAGEVYYWGQGTQVTVSS” it was “high polyreactivity”; in that of “QVQLVESGGGLVQAGGSLRLSCAASGSTFQYYAMGWYREAPGKERELVAAITHSGTRTYYADSVKGRYTISRDNAKNTVYLQMNTLKPEDTAGYYCAARGYGKYDYWGQGTQVTVSS”, “high polyreactivity”. With “QVQLVESGGGLVQAGGSLRLSCAASGSTFQYYAMGWYSQAPGKERELVAAISYGGSRTYYADSVKGRFTISRDNAKNTVYLQMNSLKPEDTAVYYCAKEKYRALAPYYYWGQGTQVTVSS”, the “polyreactivity (PSR sort gate)” value is reported as “high polyreactivity”. For the sequence “QVQLVESGGGLVQAGGSLRLSCAASGSTFRANAMGWYRQAPGKERELVAAIRWRGVGTYYADSVKGRFTISRDNAKNTVYLQMNSLKPEDTAVYYCAARRLGRSGNGSWGQGTQVTVSS”, the “polyreactivity (PSR sort gate)” value is “high polyreactivity”. As to “QVQLVESGGGLVQAGGSLRLSCAASGSTFRDYAMGWYRQAPGKERELVAAITSGGSTNYADSVKGRFTISRDNAKNTVYLQMNSLKPEDTAVYYCNARYAGWYTPWGRQSVYSDDYWGQGTQVTVSS”, the “polyreactivity (PSR sort gate)” value is recorded as “low polyreactivity”. Turning to “QVQLVESGGGLVQAGGSLRLSCAASGSTFRDYDMGWYRQAPGKERELVAAISRSGGRTYYADSVKGRFTISRDNAKNTVYLQMNSLKPEDTAVYYCAARRYTRRANPAYPYEYWGQGTQVTVSS”, the “polyreactivity (PSR sort gate)” value is recorded as “high polyreactivity”. In the case of “QVQLVESGGGLVQAGGSLRLSCAASGSTFRFNAMGWYRQAPGKERELVAVIRWRGGTTYYADSVKGRFTISRDNAKNTVYLQMKSLKPEDTAVYYCNADYWGQGTQVTVSS”, the “polyreactivity (PSR sort gate)” value was “high polyreactivity”. Regarding “QVQLVESGGGLVQAGGSLRLSCAASGSTFRFYAMGWYRQAPGKERELVATISSSGGTTYYADSVKGRFTISRDNAKNTVYLQMNSLKPEDTAVYYCAKDAFGWGRVYYYRSGYWGQGTQVTVSS”, the “polyreactivity (PSR sort gate)” value is listed as “high polyreactivity”. “QVQLVESGGGLVQAGGSLRLSCAASGSTFRFYAMGWYRQAPGKERELVAVIRSTGSTYYADSVKGRFTISRDNAKNTVYLQMNSLKPEDTAVYYCAAQNAWWSNGRSYDYWGQGTQVTVSS”: the “polyreactivity (PSR sort gate)” value is recorded as “low polyreactivity”.

“QVQLVESGGGLVQAGGSLRLSCAASGSTFRGNAMGWYRQAPGKERELVAAISSSGGSTNYADSVKGRFTISRDNAKNTVYLQMNSLKPEDTAVYYCAAERYFVWPFLLKYDYWGQGTQVTVSS”: the “polyreactivity (PSR sort gate)” value is reported as “low polyreactivity”. Consider “QVQLVESGGGLVQAGGSLRLSCAASGSTFRGNTMGWYRQAPGKERELVAVISWSDGHTYYADSVKGRFSSSRDYAKNTGYLQMNSLKPEDPAVYYCAAPDPFYDLDSWGQGTQVTVSS”, for which the “polyreactivity (PSR sort gate)” value was “high polyreactivity”. With “QVQLVESGGGLVQAGGSLRLSCAASGSTFRGYAMGWYRQAPGKERELVAAIRFSGGRTYYADSVKGRFTISRDNAKNTVYLQMNSLKPEDTAVYYCAKDYRPGWTGTDFYYWGQGTQVTVSS” the entry was “low polyreactivity”.

For “QVQLVESGGGLVQAGGSLRLSCAASGSTFRGYVMGWYRQAPGQERELVAVINSSGGRTYYADSVKGRFTISRDNAKNTVYLQMNSLKPEDTAVYYCAARVLQYSGYYYWGQGTQVTVSS”, the “polyreactivity (PSR sort gate)” value is “high polyreactivity”. Consider “QVQLVESGGGLVQAGGSLRLSCAASGSTFRHYAMGWYRQAPGKERELVAAISSTGGSTYYADSVKGRFTISRDNAKNTVYLQMNSLKPEDTAVYYCAARRLYWGQGTQVTVSS”, for which the “polyreactivity (PSR sort gate)” value is “high polyreactivity”. With “QVQLVESGGGLVQAGGSLRLSCAASGSTFRHYAMGWYRQQPGKERELVAAISSRGGSTYYADSVKGRFTISRDNAKNTVYLQMNSLKPEDTAVYYCNVVGYLRPSYRHMDYWGQGTQVTVSS” the entry was “high polyreactivity”; with “QVQLVESGGGLVQAGGSLRLSCAASGSTFRIYAMGWYRQQHGKESEFVAAITGGGTHYADSVKGRFTISRDNAKNTVYLQMNRLKPEDTAVYFCAAGYFIRTLSRYRYDYWGQGTQVTVSS”, “high polyreactivity”.

In the case of “QVQLVESGGGLVQAGGSLRLSCAASGSTFRKYAMGWYRQAPGKERELVATISRGTSTYYADSVKGRFTISRDNAKNTVYLQMNSLKPEDTAVYYCNAGYYNKRDGGYTYNYWGQGTQVTVSS”, the “polyreactivity (PSR sort gate)” value is on record as “low polyreactivity”. “QVQLVESGGGLVQAGGSLRLSCAASGSTFRNNGMGWYRQAPGKERELVAAITKSGGSTYYADSVKGRFTISRDNAKNTVYLQMNSLKPEDTAVYYCAARFWYNTPRVGWRRYNYWGQGTQVTVSS”: the “polyreactivity (PSR sort gate)” value is “high polyreactivity”. As for “QVQLVESGGGLVQAGGSLRLSCAASGSTFRNYAMGWYRQAPGKEREFVAAITWSGGRTYYADSVKGRFTISRDNAKNTVYLQMNSLKPEDTAVYYCAARYRRGYDYWGQGTQVTVSS”, the “polyreactivity (PSR sort gate)” value was “high polyreactivity”. With “QVQLVESGGGLVQAGGSLRLSCAASGSTFRPYAMGWYRQAPGKERELVAAITSTDVNTYYADSVKGRFTISRDNAKNTVYLQMNSLKPEDTAVYYCAAVYLGYYGVSDMEYWGQGTQVTVSS” the entry was “high polyreactivity”. On to “QVQLVESGGGLVQAGGSLRLSCAASGSTFRPYSMGWYRQAPGKEREFVAAINYRGGSTNYADSVKGRFTISRDNAKNTVYLQMNSLKPEDTAVYYCAATYYLRLRRPYWQGFNYWGQGTQVTVSS”, for which the “polyreactivity (PSR sort gate)” value is on record as “high polyreactivity”. In the case of “QVQLVESGGGLVQAGGSLRLSCAASGSTFRPYTMGWYRQAPGKERELVAAINRRGSSTYYADSVKGRFTISRDNAKNTVYLQMNSLKPEDTAVYYCNAVPGSRYGTYDYWGQGTQVTVSS” it was “high polyreactivity”; in that of “QVQLVESGGGLVQAGGSLRLSCAASGSTFRQNAMGWYRQAPGKERELVAAITYRVASTYYADSVKGRFTISRDNAKNTVYLQMNSLKPEDTAVYYCAARFGSGFNYWGQGTQVTVSS”, “high polyreactivity”; in that of “QVQLVESGGGLVQAGGSLRLSCAASGSTFRQYAMGWYRQAPGKERELVAAISSGGRTNYADSVKGRFTISRDNAKNTVYLQMNSLKPEDTAVYYCAADIRRRVPVRGYYYWGQGTQVTVSS”, “high polyreactivity”. As for “QVQLVESGGGLVQAGGSLRLSCAASGSTFRRNAMGWYRQAPGKERELLAAISRRGGSTYYADSVKGRFTISRDNAKNTVYLQMNSLKPEDTAVYYCASAVTTYSQGQGVYSWGQGTQVTVSS”, the “polyreactivity (PSR sort gate)” value was “high polyreactivity”. In the case of “QVQLVESGGGLVQAGGSLRLSCAASGSTFRRNAMGWYRQAPGKERELVAAISRSGGSTYYADSVKGRFTISRDNAKNTVYLQMNSLKPEDTAVYYCAADAARTSHWSGDYWGQGTQVTVSS” it was “high polyreactivity”; in that of “QVQLVESGGGLVQAGGSLRLSCAASGSTFRRNAMGWYRQAPGKERELVAAISSGGGSTYYADSVKGRFTISRDNAKNTVYLQMNSLKPEVTAVYYCAAGYFGHYVEYYYWGQGTQVTVSS”, “high polyreactivity”; in that of “QVQLVESGGGLVQAGGSLRLSCAASGSTFRRNAMGWYRQAPGKERELVAAITRRGGTYYADSVKGRFTISRDNAKNTVYLQMNSLKPEDTAVYYCAADRSYYDWRYGGFDYWGQGTQVTVSS”, “high polyreactivity”. In the case of “QVQLVESGGGLVQAGGSLRLSCAASGSTFRRNAMGWYRQAPGKERELVASITSGGSTYYADSVKGRFTISRDNAKNTVYLQMNSLKPEDTAVYYCAVVWRGGYRWPYEYWGQGTQVTVSS” it was “low polyreactivity”; in that of “QVQLVESGGGLVQAGGSLRLSCAASGSTFRRNVMGWSRQAPGKERELVAVISKSGGSTYYADSVKGRFTISRDNAENTVYLQMNSLKPEDTAVYYCAARYLKGYGYWGQGTQVTVSS”, “high polyreactivity”; in that of “QVQLVESGGGLVQAGGSLRLSCAASGSTFRRYAMGWYRQAPGKEREISTSDGSTYYADSVKGRFTISRDNAKNTVYLQMNSLKPEDTAVYYCATEIEYYVGSVPDMGYWGQGTQVTVSS”, “low polyreactivity”. Regarding “QVQLVESGGGLVQAGGSLRLSCAASGSTFRRYAMGWYRQAPGKERELVAGISYSGGRTYYADSVKGRFTISRDNAKNTVYLQMNSLKPEDTAVYYCAAKSFPSVRHHENYYWGQVTQVTVSS”, the “polyreactivity (PSR sort gate)” value is “high polyreactivity”. In the case of “QVQLVESGGGLVQAGGSLRLSCAASGSTFRRYVMGWYRQAPGKERELVAAIRWNVGSTYYADSVKGRFTISRDNAKNTVYLQMNSLKPEDTAVYYCAAYEYVRGGYGYWGQGTQVTVSS” it was “high polyreactivity”; in that of “QVQLVESGGGLVQAGGSLRLSCAASGSTFRSNAMGWYRQAPGKERELVAAIRYSGGSTYYADSVKGRFTISRDNAKNTVYLQMNSLKQEDTAVYYCATRFRTYYVDHGYWGQGTQVTVSS”, “high polyreactivity”; in that of “QVQLVESGGGLVQAGGSLRLSCAASGSTFRSYAMGWYRQAPGKEREFVAALSSSDDSSYYADSVKGRFTISRDNAKNTVYLQMNSLKPEDTAVYYCAARPWNDGYYVGRFHMDYWGQGTQVTVSS”, “low polyreactivity”.
